The source of these data is publication doi:10.1101/2023.07.20.549859 (bioRxiv, 2023).

T1: DNA polymerase alpha catalytic subunit POLA1 (334-1462) (human, UniProt P09884 334-1462)
T1 sequence (looked up): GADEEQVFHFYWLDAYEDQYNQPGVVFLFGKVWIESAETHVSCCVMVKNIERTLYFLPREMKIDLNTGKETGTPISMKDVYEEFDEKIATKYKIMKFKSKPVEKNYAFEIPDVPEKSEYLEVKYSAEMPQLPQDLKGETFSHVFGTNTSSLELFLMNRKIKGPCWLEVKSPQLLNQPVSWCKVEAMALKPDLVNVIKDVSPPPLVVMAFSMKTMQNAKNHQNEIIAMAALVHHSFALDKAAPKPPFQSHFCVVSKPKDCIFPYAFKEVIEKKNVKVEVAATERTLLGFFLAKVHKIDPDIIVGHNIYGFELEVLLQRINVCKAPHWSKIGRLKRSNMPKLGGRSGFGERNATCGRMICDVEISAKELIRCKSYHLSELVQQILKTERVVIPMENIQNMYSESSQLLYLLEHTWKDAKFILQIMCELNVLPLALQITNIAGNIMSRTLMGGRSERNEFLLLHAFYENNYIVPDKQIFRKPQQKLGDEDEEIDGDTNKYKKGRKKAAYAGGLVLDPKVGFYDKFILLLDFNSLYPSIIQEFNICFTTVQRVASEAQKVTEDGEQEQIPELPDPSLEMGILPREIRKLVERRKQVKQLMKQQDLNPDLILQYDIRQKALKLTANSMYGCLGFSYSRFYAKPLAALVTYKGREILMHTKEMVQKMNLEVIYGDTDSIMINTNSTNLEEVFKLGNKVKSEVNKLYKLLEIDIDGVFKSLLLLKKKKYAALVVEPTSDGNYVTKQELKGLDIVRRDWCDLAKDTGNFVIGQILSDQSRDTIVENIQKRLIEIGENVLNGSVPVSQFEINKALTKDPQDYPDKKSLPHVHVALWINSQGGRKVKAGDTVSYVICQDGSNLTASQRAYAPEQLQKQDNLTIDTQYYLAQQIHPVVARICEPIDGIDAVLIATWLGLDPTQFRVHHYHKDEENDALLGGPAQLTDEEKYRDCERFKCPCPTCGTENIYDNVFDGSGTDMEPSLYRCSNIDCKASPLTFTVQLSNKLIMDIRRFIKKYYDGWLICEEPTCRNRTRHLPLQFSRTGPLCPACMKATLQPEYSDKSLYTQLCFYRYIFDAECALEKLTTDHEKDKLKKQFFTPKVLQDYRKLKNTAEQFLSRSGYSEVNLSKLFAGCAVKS

B1: primase catalytic subunit PRIM1 (1-420) (enzyme, human, UniProt P49642 1-420, looked up)
chain: METFDPTELPELLKLYYRRLFPYSQYYRWLNYGGVIKNYFQHREFSFTLKDDIYIRYQSFNNQSDLEKEMQKMNPYKIDIGAVYSHRPNQHNTVKLGAFQAQEKELVFDIDMTDYDDVRRCCSSADICPKCWTLMTMAIRIIDRALKEDFGFKHRLWVYSGRRGVHCWVCDESVRKLSSAVRSGIVEYLSLVKGGQDVKKKVHLSEKIHPFIRKSINIIKKYFEEYALVNQDILENKESWDKILALVPETIHDELQQSFQKSHNSLQRWEHLKKVASRYQNNIKNDKYGPWLEWEIMLQYCFPRLDINVSKGINHLLKSPFSVHPKTGRISVPIDLQKVDQFDPFTVPTISFICRELDAISTNEEEKEENEAESDVKHRTRDYKKTSLAPYVKVFEHFLENLDKSRKGELLKKSDLQKDF
B2: primase regulatory subunit PRIM2 (1-509) (natural protein, human, UniProt P49643 1-509, looked up)
chain: MEFSGRKWRKLRLAGDQRNASYPHCLQFYLQPPSENISLIEFENLAIDRVKLLKSVENLGVSYVKGTEQYQSKLESELRKLKFSYRENLEDEYEPRRRDHISHFILRLAYCQSEELRRWFIQQEMDLLRFRFSILPKDKIQDFLKDSQLQFEAISDEEKTLREQEIVASSPSLSGLKLGFESIYKIPFADALDLFRGRKVYLEDGFAYVPLKDIVAIILNEFRAKLSKALALTARSLPAVQSDERLQPLLNHLSHSYTGQDYSTQGNVGKISLDQIDLLSTKSFPPCMRQLHKALRENHHLRHGGRMQYGLFLKGIGLTLEQALQFWKQEFIKGKMDPDKFDKGYSYNIRHSFGKEGKRTDYTPFSCLKIILSNPPSQGDYHGCPFRHSDPELLKQKLQSYKISPGGISQILDLVKGTHYQVACQKYFEMIHNVDDCGFSLNHPNQFFCESQRILNGGKDIKKEPIQPETPQPKPSVQKTKDASSALASLNSSLEMDMEGLEDYFSEDS
B3: DNA polymerase alpha accessory B subunit POLA2 (149-598) (domain or fragment, human, UniProt Q14181 149-598, looked up)
chain: SSFSPSATPSQKYNSRSNRGEVVTSFGLAQGVSWSGRGGAGNISLKVLGCPEALTGSYKSMFQKLPDIREVLTCKIEELGSELKEHYKIEAFTPLLAPAQEPVTLLGQIGCDSNGKLNNKSVILEGDREHSSGAQIPVDLSELKEYSLFPGQVVIMEGINTTGRKLVATKLYEGVPLPFYQPTEEDADFEQSMVLVACGPYTTSDSITYDPLLDLIAVINHDRPDVCILFGPFLDAKHEQVENCLLTSPFEDIFKQCLRTIIEGTRSSGSHLVFVPSLRDVHHEPVYPQPPFSYSDLSREDKKQVQFVSEPCSLSINGVIFGLTSTDLLFHLGAEEISSSSGTSDRFSRILKHILTQRSYYPLYPPQEDMAIDYESFYVYAQLPVTPDVLIIPSELRYFVKDVLGCVCVNPGRLTKGQVGGTFARLYLRRPAADGAERQSPCIAVQVVRI

What all share (experiment): cryo-EM structure
Experiment [1] concerns the target B2.
In experiment [2] the target is T1, DNA polymerase alpha catalytic subunit ….
For experiment [3] the target is unchanged. This is another data set of the same source.

Where two headings read alike, the source gives them in different places.

Take B1: the binding result in experiment [1] and in experiment [2] was “binds” throughout. Regarding B2, the binding result in experiment [3] was “binds”. Regarding B3, the binding result in experiment [2] was “binds”.
